Target: the molecule itself
Experiment: SEC-MALS

B1: human FUT9 soluble catalytic domain (residues 39-359) (enzyme, UniProt Q9Y231 39-359, looked up)
chain: SPMESASSVLKMKNFFSTKTDYFNETTILVWVWPFGQTFDLTSCQAMFNIQGCHLTTDRSLYNKSHAVLIHHRDISWDLTNLPQQARPPFQKWIWMNLESPTHTPQKSGIEHLFNLTLTYRRDSDIQVPYGFLTVSTNPFVFEVPSKEKLVCWVVSNWNPEHARVKYYNELSKSIEIHTYGQAFGEYVNDKNLIPTISTCKFYLSFENSIHKDYITEKLYNAFLAGSVPVVLGPSRENYENYIPADSFIHVEDYNSPSELAKYLKEVDKNNKLYLSYFNWRKDFTVNLPRFWESHACLACDHVKRHQEYKSVGNLEKWFWN
modifications: N-glycans cleaved with EndoF1; a tetrasaccharide (Manα1,3-Manβ1,4-GlcNAcβ1,4-GlcNAcβ-) is left on Asn153
  stoichiometry N: 2

From publication PMC10726971 (Nature chemical biology, 2023)
